First the molecules themselves.
B1: SEQ ID NO 85 (Fab, V domains shown)
VH: EVQLTESGGGLVQPGGSLRLSCRASGFIFSNHWMNWVRQAPGKGLEWIGEIRSKSSNGATSYAESVKGRFIISRDGNGTSLTLEMNSLKTEDTAEYYCAQNYYGSTYDYWGQGTLVTVS
VL: EIVLTQSPDFQSVTPKEKVTITCRASQFVGSSIHWYQQKPDQSPKLLIKYASESMSGVPSRFSGSGSGTDFTFTISSLEAEDAATYYCQQSHSWPFTFGPGTKVDIK
notes: Fab, E. coli lysate
B2: SEQ ID NO 89 (Fab, V domains shown)
VH: EVQLVESGGGLVQPGGSLRLSCRASQFTFSNHYMNWVRQAPGKGLEWIGEIRSKSINGATSYAESVKGRFIISRDDNGTDLYLEMNSLKTEDTAEYYCARNYYGSTYDYWGQGTLVTVS
VL: EIVLTQSPDFQSVTPKEKVTITCRASQFVGSSIHWYQQKPDQSPKLLIKYASESMSGVPSRFSGSGSGTDFTFTISSLEAEDAATYYCQQSHSWPFTFGPGTKVDIK
notes: Fab, E. coli lysate
B3: SEQ ID NO 92 (Fab, V domains shown)
VH: EVQLVESGGGLVQPGGSLRLSCAASGSIFSNHWMNWVRQAPGKGLEWIGEIRSKSSNSATHYAESVKGRFIISRDGNKNDLTLEMNSLKTEDTAEYYCARNYYGSTYDYWGQGTLVTVS
VL: EIVLTQSPDFQSVTPKEKVTITCRASQFVGSSIHWYQQKPDQSPKLLIKYASESMSGVPSRFSGSGSGTDFTFTISSLEAEDAATYYCQQSHSWPFTFGPGTKVDIK
notes: Fab, E. coli lysate
B4: SEQ ID NO 88 (Fab, V domains shown)
VH: EVQLVESGGGLVQPGGSLRLSCAASGFTFSNHWMNWVRQAPGKGLEWIGEIRSKSSNSATSYAESVKGRFIISRDGNKNDLTLEMNSLKTEDTAEYYCARNYYGSTYDYWGQGTLVTVS
VL: EIVLTQSPDFQSVTPKEKVTITCRASQFVGSSIHWYQQKPDQSPKLLIKYASESMSGVPSRFSGSGSGTDFTFTISSLEAEDAATYYCQQSHSWPFTFGPGTKVDIK
notes: Fab, E. coli lysate
B5: SEQ ID NO 87 (Fab, V domains shown)
VH: EVQLVESGGGLVQPGGSLRLSCAASGFTFSNHWMNWVRQAPGKGLEWIGEIRSKSSNSATHYAESVKGRFIISRDGNKTSLYLEMNSLKTEDTAEYYCARNYYGSTYDYWGQGTLVTVS
VL: EIVLTQSPDFQSVTPKEKVTITCRASQFVGSSIHWYQQKPDQSPKLLIKYASESMSGVPSRFSGSGSGTDFTFTISSLEAEDAATYYCQQSHSWPFTFGPGTKVDIK
notes: Fab, E. coli lysate
B6: SEQ ID NO 94 (Fab, V domains shown)
VH: EVQLVESGGGLVQPGGSLRLSCRASGSIFSNHWMNWVRQAPGKGLEWIGEIRSKSINGATHYAESVKGRFIISRDDNGTSLYLEMNSLKTEDTAEYYCARNYYGSTYDYWGQGTLVTVS
VL: EIVLTQSPDFQSVTPKEKVTITCRASQFVGSSIHWYQQKPDQSPKLLIKYASESMSGVPSRFSGSGSGTDFTFTISSLEAEDAATYYCQQSHSWPFTFGPGTKVDIK
notes: Fab, E. coli lysate
B7: SEQ ID NO 93 (Fab, V domains shown)
VH: EVQLTESGGGLVQPGGSLRLSCRASGFTFSNHYMNWVRQAPGKGLEWIGEIRSKSSYGATHYAESVKGRFIISRDDNGTDLYLEMNSLKTEDTAEYYCAQNYYGSTPDYWGQGTLVTVS
VL: EIVLTQSPDFQSVTPKEKVTITCRASQFVGSSIHWYQQKPDQSPKLLIKYASESMSGVPSRFSGSGSGTDFTFTISSLEAEDAATYYCQQSHSWPFTFGPGTKVDIK
notes: Fab, E. coli lysate
B8: SEQ ID NO 91 (Fab, V domains shown)
VH: EVQLTESGGGLVQPGGSLRLSCAASQSIFSNHYMNWVRQAPGKGLEWIGEIRSKSINSATHYAESVKGRFIISRDGNKNDLYLEMNSLKTEDTAEYYCARNYYGSTPDYWGQGTLVTVS
VL: EIVLTQSPDFQSVTPKEKVTITCRASQFVGSSIHWYQQKPDQSPKLLIKYASESMSGVPSRFSGSGSGTDFTFTISSLEAEDAATYYCQQSHSWPFTFGPGTKVDIK
notes: Fab, E. coli lysate

In this test the target is T1, human tumor necrosis factor-α (rHuTNF-alpha, Biosource) (human, UniProt P01375 77-233).
T1 construct: Bought recombinant protein coated on ELISA plates; The TNFα of the Biacore assay is not described further; also called TNFα; human TNFα
T1 sequence (P01375 77-233 limits assumed): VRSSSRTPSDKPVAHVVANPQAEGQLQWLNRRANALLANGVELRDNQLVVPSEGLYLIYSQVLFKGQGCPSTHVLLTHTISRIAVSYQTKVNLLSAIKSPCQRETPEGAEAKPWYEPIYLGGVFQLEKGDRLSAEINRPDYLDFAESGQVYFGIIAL
The test can be described thus: solid-phase ELISA, Fab lysate on coated rHuTNF-alpha. As to the method: The Fab libraries were cloned into pTrcHis2A (Cat. No. V365-20, Invitrogen, Carlsbad, Calif.). Proteins were expressed in E. coli and solid-phase ELISA was used to assess Fab binding to human TNFα. Briefly, 96-well plates were coated overnight at 4° C. with 1 μg/ml of rHuTNF-alpha (Biosource, Camarillo, Calif.) in Carbonate-bicarbonate buffer, pH9.4. After washing in PBS with 0.05% (w/v) Tween-20, the wells were blocked with 1% (w/v) BSA in PBS for 1 hour at room temperature. After washing, plates were incubated with transformed E. coli cell lysate diluted in the assay buffer (1% BSA and 0.05% Tween-20 in 10 mM PBS) for 2 hours at room temperature. Various concentrations of infliximab (0.5, 1 and 2 ng/ml) were used as positive anti-Human Kappa Light Chain Biotin/anti-penta-His Biotin control. Plates were washed and incubated with ImmunoPure Goat Anti-Human Kappa Chain, Biotin Conjugated (Cat. No. 31780, Pierce Biotechnology, Rockford, Ill.) and Penta-His Biotin Conjugate (Cat. No. 34440, QIAGEN, Valencia, Calif.) diluted 1:2000 in the assay buffer for 1 hour at room temperature. Following another washing step, plates were probed for 1 hour at room temperature with 100 μL/well of Streptavidin POD (Cat. No. 1089153, Roche Applied Science, Indianapolis, Ind.) diluted 1:4000 in the assay buffer. Plates were further washed and then incubated with 3,3′,5,5′-tetramentylbenzidine (TMB, Cat. No. 34028, Pierce Biotechnology) for 30 minutes. Substrate development was stopped by addition of 100 μL/well TMB Stop Solution (Cat. No. 50-85-05, KPL, Gaithersburg, Md.) and the absorbance was measured at 450 nm via an automated plate spectrophotometer.
For orientation: An ELISA detects its analyte on a solid surface through an enzyme-linked reagent.
B1: the binding result is listed as “binds”.

As for B2, the binding result is “binds”.

Turning to B3, the binding result is “binds”.

Take B4: the binding result was “binds”.

As for B5, the binding result is “binds”.

Consider B6, for which the binding result is given as “binds”.

Turning to B7, the binding result is listed as “binds”.

Take B8: the binding result is reported as “binds”.

These data come from patent US20070092518A1 (published 2007).
